This data set concerns the target T1, beta secretase (Homo sapiens, UniProt P56817).
T1 construct: a homogeneous preparation of beta secretase with V^40 as an N-terminus could be made; made in house; host or cells: CHO-K1 cells; secreted, purified, then cleaved in vitro with HIV-1 protease
As to the kind of experiment: beta secretase activity assay by HPLC analysis of the products. In kind it is biochemical. The settings on record: CHO cell derived human beta secretase cleaved at F39-V40 by HIV-1 protease, compared with unprocessed/non-treated enzyme. The protocol: Cleavage of Beta Secretase by HIV Protease. It was reasoned that a homogeneous preparation of beta secretase with V^40 as an N-terminus could be made if conditions could be found to bring the cleavage to completion. The optimal conditions for cleavage were determined by examining the N-terminal sequence of beta secretase after incubation with HIV-1 protease in various conditions. These included a pH range of 4-7, urea concentrations of 0.5-3.0 M, and time increments of 15 minutes, up to 2 hours incubation at 37° C. […] The processed enzyme was separated from the other components of the reaction mixture by using an affinity column based on the synthetic peptide shown in FIG. 2 and dialysis.
Purified HIV-1 protease treated (and non-treated) beta secretase were assayed for activity by HPLC analysis of the products.

Results on 1 molecule are retold here after US7524668B1, “Crystal of human beta secretase having monoclinic space group symmetry C2 and methods for crystallization thereof” (Elan Pharmaceuticals, Inc., priority 2001, dated 2009).

B1: HIV-1 protease treated beta secretase: CHO cell expressed recombinant human beta secretase proteolytically cleaved with HIV protease at the F39-V40 bond (SEQ ID NO:5) (protein)
chain: VEMVDNLRGKSGQGYYVEMTVGSPPQTLNILVDTGSSNFAVGAAPHPFLHRYYQRQLSSTYRDLRKGVYVPYTQGKWEGELGTDLVSIPHGPNVTVRANIAAITESDKFFINGSNWEGILGLAYAEIARPDDSLEPFFDSLVKQTHVPNLFSLQLCGAGFPLNQSEVLASVGGSMIIGGIDHSLYTGSLWYTPIRREWYYEVIIVRVEINGQDLKMDCKEYNYDKSIVDSGTTNLRLPKKVFEAAVKSIKAASSTEKFPDGFWLGEQLVCWQAGTTPWNIFPVISLYLMGEVTNQSFRITILPQQYLRPVEDVATSQDDCYKFAISQSSTGTVMGAVIMEGFYVVFDRARKRIGFAVSACHVHDEFRTAAVEGPFVTLDMEDCGYNIPQTDESHHHHHH
As for B1, the “more enzymatic activity than non-treated beta secretase” value was 10-20%.
